From paper PMC2911020

How the values were obtained:
[1] = biological target: PapDG chaperone-adhesin complex (His-tagged PapD, class II PapG), purified and coumarin-labeled (Escherichia coli) (UniProt P15319); test: other fluorescence titration
[2] = biological target: PapC usher (Escherichia coli) (UniProt P07110); conditions: cited from earlier work

Substance: PapC R652A, purified, His-tag cleaved off (pQY652) (natural protein)
- Kd [1]: 1590 nM

Substance: PapC usher, wild type, purified, His-tag cleaved off (pDG2) (from UniProt P07110 25-836) (natural protein)
- Kd [1]: 59 nM

Substance: PapDG chaperone-subunit complex (from UniProt P15319)
- Kd [2]: 90 nM

Substance: PapC F21A, purified, His-tag cleaved off (pQY21) (from UniProt P07110 25-836) (natural protein)
- Kd [1]: 62 nM
